Laboratory results taken from paper PMC4980424, “Glucansucrase Gtf180-ΔN of Lactobacillus reuteri 180: enzyme and reaction engineering for improved glycosylation of non-carbohydrate molecules” (Applied Microbiology and Biotechnology, 2016).
Changes are numbered by the printed parent chain. Numbers in names are those of the source.

How the values were obtained:
[1] = substrate: OC[C@H]1O[C@H](Oc2ccccc2O)[C@H](O)[C@@H](O)[C@@H]1O; test: initial rates by TLC densitometry; Michaelis-Menten fit; assay type: biochemical, Limosilactobacillus reuteri; details: acceptor substrate, 1000 mM sucrose as donor, pH 4.7, 37 °C
Excerpt: initial rates by TLC densitometry; Michaelis-Menten fit on Gtf180-ΔN

[2] = substrate: Oc1ccccc1O; test: initial rates of catechol-G1 formation by TLC densitometry; Michaelis-Menten fit; assay type: biochemical, Limosilactobacillus reuteri; details: acceptor substrate, 1000 mM sucrose as donor, pH 4.7, 37 °C
Excerpt: initial rates of catechol-G1 formation by TLC densitometry; Michaelis-Menten fit on Gtf180-ΔN

B1: Gtf180-ΔN (Limosilactobacillus reuteri) (protein)
chain: INGQQYYIDPTTGQPRKNFLLQNGNDWIYFDKDTGAGTNALKLQFDKGTISADEQYRRGNEAYSYDDKSIENVNGYLTADTWYRPKQILKDGTTWTDSKETDMRPILMVWWPNTVTQAYYLNYMKQYGNLLPASLPSFSTDADSAELNHYSELVQQNIEKRISETGSTDWLRTLMHEFVTKNSMWNKDSENVDYGGLQLQGGFLKYVNSDLTKYANSDWRLMNRTATNIDGKNYGGAEFLLANDIDNSNPVVQAEELNWLYYLMNFGTITGNNPEANFDGIRVDAVDNVDVDLLSIARDYFNAAYNMEQSDASANKHINILEDWGWDDPAYVNKIGNPQLTMDDRLRNAIMDTLSGAPDKNQALNKLITQSLVNRANDNTENAVIPSYNFVRAHDSNAQDQIRQAIQAATGKPYGEFNLDDEKKGMEAYINDQNSTNKKWNLYNMPSAYTILLTNKDSVPRVYYGDLYQDGGQYMEHKTRYFDTITNLLKTRVKYVAGGQTMSVDKNGILTNVRFGKGAMNATDTGTDETRTEGIGVVISNNTNLKLNDGESVVLHMGAAHKNQKYRAVILTTEDGVKNYTNDTDAPVAYTDANGDLHFTNTNLDGQQYTAVRGYANPDVTGYLAVWVPAGAADDQDARTAPSDEAHTTKTAYRSNAALDSNVIYEGFSNFIYWPTTESERTNVRIAQNADLFKSWGITTFELAPQYNSSKDGTFLDSIIDNGYAFTDRYDLGMSTPNKYGSDEDLRNALQALHKAGLQAIADWVPDQIYNLPGKEAVTVTRSDDHGTTWEVSPIKNVVYITNTIGGGEYQKKYGGEFLDTLQKEYPQLFSQVYPVTQTTIDPSVKIKEWSAKYFNGTNILHRGAGYVLRSNDGKYYNLGTSTQQFLPSQLSVQDNEGYGFVKEGNNYHYYDENKQMVKDAFIQDSVGNWYYFDKNGNMVANQSPVEISSNGASGTYLFLNNGTSFRSGLVKTDAGTYYYDGDGRMVRNQTVSDGAMTYVLDENGKLVSESFDSSATEAHPLKPGDLNGQK
notes: N-terminally truncated Gtf180 (ΔN)
Q: For B1, which Km [1] is on record?
A: 88.8 ± 17.1 mM

Q: And the kcat [1]?
A: 863 ± 39.3 s⁻¹

Q: And the kcat/Km [1]?
A: 10200 M⁻¹ s⁻¹

B2: Gtf180-ΔN (Limosilactobacillus reuteri; N1029M) (protein)
chain: B1 chain with N288M
notes: as for B1
Q: How did the Km [2] turn out when B2 was run?
A: 58.9 ± 6.4 mM

Q: What about the kcat [2] of the same protein?
A: 449 ± 4.9 s⁻¹

Q: What about the kcat/Km [2] of the same protein?
A: 7700 M⁻¹ s⁻¹

B3: Gtf180-ΔN (Limosilactobacillus reuteri; L938F) (protein)
chain: B1 chain with L197F
notes: as for B1
Q: Which results are given for B3?
A: Km [2]: 85.5 ± 4.0 mM; kcat [2]: 1870 ± 74.7 s⁻¹; kcat/Km [2]: 21900 M⁻¹ s⁻¹; Km [1]: 91.1 ± 7.3 mM; kcat [1]: 576 ± 44 s⁻¹; kcat/Km [1]: 6300 M⁻¹ s⁻¹

B4: Gtf180-ΔN (Limosilactobacillus reuteri; L981A) (protein)
chain: B1 chain with L240A
notes: as for B1
Q: Which Km [2] does the source give for B4 here?
A: 11.0 ± 1.3 mM

Q: And the kcat [2]?
A: 203 ± 8.1 s⁻¹

Q: What about the kcat/Km [2] of the same protein?
A: 18700 M⁻¹ s⁻¹
